Biological target: T1, ヒトeIF5Aタンパクの(44−72番目)のアミノ酸残基から成るペプチド (human, UniProt P63241 44-72)
T1 construct: range 44-72; The peptide was coupled to KLH for immunisation; also called human eIF5A (44-72) peptide
Assay: ELISA screening of hybridoma monoclonal antibodies

T1 sequence (P63241 44-72 limits assumed): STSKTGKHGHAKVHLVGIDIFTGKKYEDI

binding result: binds
B1: 抗ORAIP抗体(クローン YSP5−45−36) (antibody, V domains shown)
VH: EVKLVESGGGLVQPGGSLRLSCATSGFTFTDYYMSWARQPPGKALEWLGFIRNKANGYTTEYSASVKGRFTISRDNSLGILYLQMNTLRPEDSATYYCARNYYGTSFSWFAYWGQGTLVTVSA
VL: MTQTPLSLSVSLGDQASISCRSSQSIVHFNGNTYLEWYLQKPGQSPKLLIYKVSSRFSGVPDRFSGSGSGTDFTLKISRVEAEDLGVYYCFQGSHVPPTFGGGTKLEIK
notes: Mouse monoclonal antibody from a hybridoma (mouse spleen cells fused with mouse myeloma cells); also called モノクローナル抗体(クローン YSP5−45−36); clone YSP5-45-36
